Measurements published in publication PMC4114019.

Target: T1, Purified FLAG-IKKε protein, Q14164
T1 chain: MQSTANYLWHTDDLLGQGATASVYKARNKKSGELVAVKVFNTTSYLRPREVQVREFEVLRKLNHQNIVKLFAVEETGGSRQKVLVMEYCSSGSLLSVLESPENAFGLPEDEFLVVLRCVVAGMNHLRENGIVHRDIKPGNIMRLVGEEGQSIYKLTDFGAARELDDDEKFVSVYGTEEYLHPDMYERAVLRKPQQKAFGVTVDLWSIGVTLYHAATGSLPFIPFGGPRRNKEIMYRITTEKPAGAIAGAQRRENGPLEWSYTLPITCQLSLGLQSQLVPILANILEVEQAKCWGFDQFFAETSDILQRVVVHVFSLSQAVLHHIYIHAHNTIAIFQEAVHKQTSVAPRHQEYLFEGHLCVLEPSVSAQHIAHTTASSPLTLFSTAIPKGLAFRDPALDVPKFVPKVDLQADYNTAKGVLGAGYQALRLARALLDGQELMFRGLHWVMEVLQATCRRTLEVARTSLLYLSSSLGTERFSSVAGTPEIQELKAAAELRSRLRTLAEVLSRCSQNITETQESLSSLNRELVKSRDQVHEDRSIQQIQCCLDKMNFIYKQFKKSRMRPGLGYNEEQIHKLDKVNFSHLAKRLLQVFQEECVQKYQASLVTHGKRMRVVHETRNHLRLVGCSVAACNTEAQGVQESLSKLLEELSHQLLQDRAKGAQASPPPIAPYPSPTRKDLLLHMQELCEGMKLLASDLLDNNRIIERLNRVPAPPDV
Test: native gel or EMSA
Conditions: remark: other sources report otherwise

B1: Purified FLAG-IKKε protein, Q14164 1-716 (enzyme)
chain: T1 chain
Binder B1 has a stoichiometry N of 2.
